Literature values, collected in PMC2854688.
“And” between values parts separate entries of the source, which are not always exact repeats. Equal values may be shown once.

Legend:
[1] = molecular target: eRF3 PAM2 peptide PAM2 (Homo sapiens) (UniProt P15170)
[2] = molecular target: eRF3 overlapping PAM2 peptide PAM2 (Homo sapiens) (UniProt P15170)

Kd [1]: 3.9 µM and 3.1 µM
Kd [2]: 1.3 µM
Substance: PABPC1 MLLE domain MLLE (from UniProt P11940)
